Measurements taken from patent US20220402989A1.
Where two headings read alike, the source gives them in different places.

Assays:
[1] = target: IL2Rα/β/γ receptor (high affinity IL2 receptor) on YT/STAT5-Luc cells expressing endogenous or over-expressed human IL2Rα (human) (UniProt P01589); assay: cell-based or functional assay
[2] = target: IL2Rβ/γ receptor (low/medium affinity IL2 receptor) on YT/STAT5-Luc cells with IL2Rα knocked out (human) (UniProt P14784); assay: cell-based or functional assay
[3] = target: human PD1 (amino acids M1-L288 of NP_005009.2 with a 2Q=>E mutation) stably expressed on engineered reporter cells (human) (UniProt Q15116); assay: cell-based or functional assay
[4] = target: IL2Rα/β/γ receptor (high affinity IL2 receptor) on YT/STAT5-Luc cells expressing endogenous or over-expressed human IL2Rα (human) (UniProt P01589); assay: cell-based or functional assay; remark: listed apart in the source
[5] = target: IL2Rβ/γ receptor (low/medium affinity IL2 receptor) on YT/STAT5-Luc cells with IL2Rα knocked out (human) (UniProt P14784); assay: cell-based or functional assay; remark: listed apart in the source
[6] = target: IL2Rβ/γ receptor (low/medium affinity IL2 receptor) on YT/STAT5-Luc cells with IL2Rα knocked out (human) (UniProt P14784); assay: flow cytometry, YT/STAT5-Luc CD25 KO/PD1 OE cells, AF647 anti-human IgG secondary
[7] = target: IL2Rα/β/γ receptor (high affinity IL2 receptor) on YT/STAT5-Luc cells expressing endogenous or over-expressed human IL2Rα (human) (UniProt P01589); assay: flow cytometry, YT/STAT5-Luc CD25 OE/PD1 OE cells, AF647 anti-human IgG secondary
[8] = target: IL2Rα/β/γ receptor (high affinity IL2 receptor) on YT/STAT5-Luc cells expressing endogenous or over-expressed human IL2Rα (human) (UniProt P01589); assay: flow cytometry on YT/STAT5-Luc/IL2Ra OE (CD25 OE/PD1 OE) cells, AF647 anti-human IgG secondary, gMFI on a log axis

Substance	Fold induction, STAT5-Luc IL2 reporter assay, YT/Stat5-Luc [1] [fold]	Fold induction, STAT5-Luc IL2 reporter assay, YT/Stat5-Luc/hIL2Rα [1] [fold]	Fold induction, STAT5-Luc IL2 reporter assay, YT/Stat5-Luc/hIL2Rα/hPD1 [1] [fold]	Fold induction, STAT5-Luc IL2 reporter assay, YT/Stat5-Luc/hPD1 [1] [fold]	Fold induction, STAT5-Luc IL2 reporter assay, YT/Stat5-Luc/IL2Rα KO [2] [fold]	Fold induction, STAT5-Luc IL2 reporter assay, YT/Stat5-Luc/IL2Rα KO/hPD1 [2] [fold]	Fold induction, AP1-Luc PD1 antagonistic assay [3] [fold]	EC50, STAT5-Luc IL2 reporter assay, YT/Stat5-Luc/hIL2Rα [1] [pM]	EC50, STAT5-Luc IL2 reporter assay, YT/Stat5-Luc/hIL2Rα/hPD1 [1] [pM]	EC50 (M), STAT5-Luc IL2 reporter assay, CD25 OE/PD1 OE [1] [M]	Max Fold induction, STAT5-Luc IL2 reporter assay, CD25 OE/PD1 OE [1] [fold]	Max Fold induction, STAT5-Luc IL2 reporter assay, CD25 KO/PD1 OE [2] [fold]	also measured
Isotype control (IL2 reporter assay, Tables 8 and 9) (antibody)	1.07	1.07	1	1.08	1.12	1.06	–	–	–	–	–	–	–
Isotype control 1 (antibody)	–	–	–	–	–	–	1.13	–	–	–	–	–	–
REGN9904 (non-targeted IL2Rα-IL2)	3.21	4.87	2.77	4.52	2.62	2.59	1.08	1630	971	–	–	–	EC50, PD1 competition STAT5-Luc assay, YT/STAT5-Luc/hIL2Rα/hPD1, no antibody ('-') [1]: 703 pM; EC50, PD1 competition STAT5-Luc assay, YT/STAT5-Luc/hIL2Rα/hPD1, with Comp 1 [1]: 918 pM; EC50, PD1 competition STAT5-Luc assay, YT/STAT5-Luc/hIL2Rα/hPD1, with Comp 2 [1]: 938 pM; EC50, PD1 competition STAT5-Luc assay, YT/STAT5-Luc/hIL2Rα/hPD1, with REGN2810 [1]: 651 pM; EC50, PD1 competition STAT5-Luc assay, YT/STAT5-Luc/hIL2Rα/hPD1, with isotype control [1]: 791 pM; EC50 (M), STAT5-Luc IL2 reporter assay, CD25 OE/PD1 OE [4]: 7.69e-10 M; Max Fold induction, STAT5-Luc IL2 reporter assay, CD25 OE/PD1 OE [4]: 4.57 fold; Max Fold induction, STAT5-Luc IL2 reporter assay, CD25 KO/PD1 OE [5]: 3.24 fold; Fold induction (highest gMFI relative to gMFI without antibody) [6]: 1.7 fold; Max gMFI [6]: 3990 gMFI; Fold induction (highest gMFI relative to gMFI without antibody) [7]: 33.1 fold; Max gMFI [7]: 77600 gMFI; EC50 (read off the curve) [8]: 10 nM
REGN9903 (isotype-IL2Rα-IL2 control)	–	–	–	–	–	–	–	–	–	3.31e-10	7	4.37	–
IL2-Fc (Fc fusion)	4.96	5.49	3.06	7.97	5.4	3.87	–	24.1	23.2	–	–	–	EC50, STAT5-Luc IL2 reporter assay, YT/Stat5-Luc [1]: 402 pM; EC50, STAT5-Luc IL2 reporter assay, YT/Stat5-Luc/hPD1 [1]: 392 pM; EC50, STAT5-Luc IL2 reporter assay, YT/Stat5-Luc/IL2Rα KO [2]: 1.33 nM; EC50, STAT5-Luc IL2 reporter assay, YT/Stat5-Luc/IL2Rα KO/hPD1 [2]: 442 pM

Now from value to substance, other results behind:

Fold induction, STAT5-Luc IL2 reporter assay, YT/Stat5-Luc [1] [fold]	Fold induction, STAT5-Luc IL2 reporter assay, YT/Stat5-Luc/hIL2Rα [1] [fold]	Fold induction, STAT5-Luc IL2 reporter assay, YT/Stat5-Luc/hIL2Rα/hPD1 [1] [fold]	Fold induction, STAT5-Luc IL2 reporter assay, YT/Stat5-Luc/hPD1 [1] [fold]	Fold induction, STAT5-Luc IL2 reporter assay, YT/Stat5-Luc/IL2Rα KO [2] [fold]	Fold induction, STAT5-Luc IL2 reporter assay, YT/Stat5-Luc/IL2Rα KO/hPD1 [2] [fold]	Fold induction, AP1-Luc PD1 antagonistic assay [3] [fold]	EC50, STAT5-Luc IL2 reporter assay, YT/Stat5-Luc/hIL2Rα [1] [pM]	EC50, STAT5-Luc IL2 reporter assay, YT/Stat5-Luc/hIL2Rα/hPD1 [1] [pM]	EC50 (M), STAT5-Luc IL2 reporter assay, CD25 OE/PD1 OE [1] [M]	Max Fold induction, STAT5-Luc IL2 reporter assay, CD25 OE/PD1 OE [1] [fold]	Max Fold induction, STAT5-Luc IL2 reporter assay, CD25 KO/PD1 OE [2] [fold]	Substance	also measured
–	–	–	–	–	–	1.2	–	–	–	–	–	Isotype control 2 (antibody)	–
3.29	5.19	2.88	6.39	2.85	3.54	3.04	848	35.3	3.3e-11	7.36	5.72	REGN10597	EC50, STAT5-Luc IL2 reporter assay, YT/Stat5-Luc/hPD1 [1]: 175 pM; EC50 (M), STAT5-Luc IL2 reporter assay, CD25 KO/PD1 OE [2]: 5.78e-11 M; EC50, STAT5-Luc IL2 reporter assay, YT/Stat5-Luc/IL2Rα KO/hPD1 [2]: 191 pM; EC50 (M), AP1-Luc PD1 antagonistic assay [3]: 1.26e-08 M; EC50, PD1 competition STAT5-Luc assay, YT/STAT5-Luc/IL2Rα KO/hPD1, no antibody ('-') [3]: 128 pM; EC50, PD1 competition STAT5-Luc assay, YT/STAT5-Luc/IL2Rα KO/hPD1, with Comp 1 [3]: 306 pM; EC50, PD1 competition STAT5-Luc assay, YT/STAT5-Luc/IL2Rα KO/hPD1, with Comp 2 [3]: 281 pM; EC50, PD1 competition STAT5-Luc assay, YT/STAT5-Luc/IL2Rα KO/hPD1, with REGN2810 [3]: 222 pM; EC50, PD1 competition STAT5-Luc assay, YT/STAT5-Luc/IL2Rα KO/hPD1, with isotype control [3]: 132 pM; EC50, PD1 competition STAT5-Luc assay, YT/STAT5-Luc/hIL2Rα/hPD1, no antibody ('-') [3]: 54.5 pM; EC50, PD1 competition STAT5-Luc assay, YT/STAT5-Luc/hIL2Rα/hPD1, with Comp 1 [3]: 76.5 pM; EC50, PD1 competition STAT5-Luc assay, YT/STAT5-Luc/hIL2Rα/hPD1, with Comp 2 [3]: 80.5 pM; EC50, PD1 competition STAT5-Luc assay, YT/STAT5-Luc/hIL2Rα/hPD1, with REGN2810 [3]: 117 pM; EC50, PD1 competition STAT5-Luc assay, YT/STAT5-Luc/hIL2Rα/hPD1, with isotype control [3]: 70.9 pM; EC50 (M), STAT5-Luc IL2 reporter assay, CD25 OE/PD1 OE [4]: 3.71e-11 M; Max Fold induction, STAT5-Luc IL2 reporter assay, CD25 OE/PD1 OE [4]: 5.1 fold; EC50 (M), STAT5-Luc IL2 reporter assay, CD25 KO/PD1 OE [5]: 8.38e-11 M; Max Fold induction, STAT5-Luc IL2 reporter assay, CD25 KO/PD1 OE [5]: 4.36 fold
–	–	–	–	–	–	–	–	–	1.41e-09	7.78	1.25	Isotype-IL2-IL2Ra	–
